Like-named read-outs stand apart in the source and are kept apart here.
apurinic/apyrimidinic endonuclease 1 (APE1): K6R/K7R
no change: enzymatic_activity (acetylation at K6) | expression_or_secretion (acetylation at K6) | enzymatic_activity (acetylation at K7) | expression_or_secretion (acetylation at K7)

Reference: article PMC3900260
